Results as given in patent US20230078601A1 (CLEVELAND CLINIC FOUNDATION, published 2023).

What was measured:
[1] = biological target: T1, AMHR2-ED 22-26 5-mer peptide (LGELL) (human); assay: SPOT peptide array, 4D12G1 at 1.0 ug/ml, chemiluminescence
T1 construct: Synthesised on a cellulose membrane (SPOT peptide array); also called 22LGELL26; Residues 22-26 of AMHR2-ED and 39-43 of AMHR2
T1 peptide: LGELL
Protocol: (§1) The AMHR2-ED binding sequence of the 4D12G1 mAb and the critical AMHR2-ED residues for such binding were confirmed by SPOT peptide arrays. Peptides spanning the AMHR2-ED 9-40 immunoreactive region and ranging from 4-16-mers in length were synthesized >90% pure on cellulose membranes (JPT Peptide Technologies, Berlin, Germany), treated overnight with blocking buffer (Thermo Fisher), followed by treatment with the 4D12G1 mAb at 1.0 μg/ml for 3 hours at room temperature, followed by three washes with PBS containing 0.01% Tween-20 (Bio-Rad). The membranes were then treated with a 1:10,000 dilution of an HRP-conjugated rabbit anti-mouse IgG (MilliporeSigma) followed by three washes with PBS containing 0.01% Tween-20 (Bio-Rad). Bound antibody was detected using the HyGLO chemiluminescence system (Thomas Scientific).
(§2) An overlapping series of 16-mer peptides spanning the entire 132 amino acid sequence of human AMHR2-ED (FIG. 3A) with moving single amino acid shifts were plated for direct ELISA testing using the 4D12G1 mAb as primary antibody. […] To determine amino acids recognized by the 4D12G1 mAb, an overlapping series of peptides spanning the immunoreactive sequence comprising AMHR2-ED 13-30 were synthesized with alanine substitutions at each N-terminal residue or with glycine substitutions for any native N-terminal alanine. […] Bound antibody was detected by chemiluminescence.

[2] = biological target: T2, Native p17-33; assay: SPOT peptide array of membrane-bound 17-mer peptides, 4D12G1, chemiluminescence
T2 construct: also called AMHR2-ED 17-33 17-mer peptide
T2 peptide: GSTKTLGELLDTGTELP
Protocol: on cellulose membranes (JPT Peptide Technologies, Berlin, Germany), treated overnight with blocking buffer (Thermo Fisher), followed by treatment with the 4D12G1 mAb at 1.0 μg/ml for 3 hours at room temperature, followed by three washes with PBS containing 0.01% Tween-20 (Bio-Rad). The membranes were then treated with a 1:10,000 dilution of an HRP-conjugated rabbit anti-mouse IgG (MilliporeSigma) followed by three washes with PBS containing 0.01% Tween-20 (Bio-Rad). Bound antibody was detected using the HyGLO chemiluminescence system (Thomas Scientific).
as §2, with “alanine. These peptides were used in competitive ELISAs to determine which residues inhibit binding of the 4D12G1 mAb with solid phase rhAMHR2-ED.” for “alanine.”, “chemiluminescence. […]” for “chemiluminescence.”

[3] = biological target: T3, p20-26; assay: SPOT peptide array on cellulose membrane, 4D12G1 at 1.0 µg/ml, chemiluminescence
T3 construct: SPOT array peptide on cellulose membrane; residues 20-26 of AMHR2-ED; also called AMHR2-ED 20-26 7-mer peptide; KTLGELL
T3 peptide: KTLGELL
Protocol: as §1
(§3) An overlapping series of 16-mer peptides spanning the entire 132 amino acid sequence of human AMHR2-ED (FIG. 3A) with moving single amino acid shifts were plated for direct ELISA testing using the 4D12G1 mAb as primary antibody. […] To determine amino acids recognized by the 4D12G1 mAb, an overlapping series of peptides spanning the immunoreactive sequence comprising AMHR2-ED 13-30 were synthesized with alanine substitutions at each N-terminal residue or with glycine substitutions for any native N-terminal alanine. These peptides were used in competitive ELISAs to determine which residues inhibit binding of the 4D12G1 mAb with solid phase rhAMHR2-ED. […] To determine the minimal AMHR2-ED sequence involved in the binding of the 4D12G1 mAb, SPOT peptide arrays were generated spanning the immunoreactive region of AMHR2-ED. Peptides ranging from 4-16-mers in length were immobilized on cellulose membranes and treated with the 4D12G1 mAb. Bound antibody was detected by chemiluminescence.

[4] = biological target: T4, p20-35; assay: as above
T4 construct: SPOT array peptide on cellulose membrane; also called AMHR2-ED 20-35 16-mer peptide
T4 peptide: KTLGELLDTGTELPRA
Protocol: as §1, §3

[5] = biological target: T5, p22-37; assay: as above
T5 construct: SPOT array peptide on cellulose membrane; also called AMHR2-ED 22-37 16-mer peptide
T5 peptide: LGELLDTGTELPRAIR
Protocol: as §1, §3

[6] = biological target: T6, p21-36; assay: as above
T6 construct: SPOT array peptide on cellulose membrane; also called AMHR2-ED 21-36 16-mer peptide
T6 peptide: TLGELLDTGTELPRAI
Protocol: as §1, §3

Measured: binding result

B1: 4D12G1 mAb (antibody, IgG1, V domains shown)
VH: DVKLVESGGGLVKLGGSLKLSCAASGFTFSRYFMSWVRQTPEKRLELVAAINSDGGRTYYPDTVKGRFTISRDNAKNTLYLQMSSLKSEDTALYYCTRHIYSYYEDYFDYWGQGTTLTVSS
VL: DVVMTQTPLSLPVSLGDQASISCRSSQSLVHSNGNTYLHWYLQKPGQSPKLLIYKVSKRFSGVPDRFSGSGSGTDFTLKISRVEAEDLGVYFCSQSTHVYTFGGGTKLEIK
notes: also called 4D12G1 IgG1 mAb
binds: all assays above
